Residue numbers refer to the chain shown, from its start.
Legend:
Experiment in all cases: flow cytometry on cells
[1] = biological target: T1, CD155 WT (wild-type CD155; poliovirus receptor, PVR) (human), P15151; details: remark: other sources report otherwise
T1 chain: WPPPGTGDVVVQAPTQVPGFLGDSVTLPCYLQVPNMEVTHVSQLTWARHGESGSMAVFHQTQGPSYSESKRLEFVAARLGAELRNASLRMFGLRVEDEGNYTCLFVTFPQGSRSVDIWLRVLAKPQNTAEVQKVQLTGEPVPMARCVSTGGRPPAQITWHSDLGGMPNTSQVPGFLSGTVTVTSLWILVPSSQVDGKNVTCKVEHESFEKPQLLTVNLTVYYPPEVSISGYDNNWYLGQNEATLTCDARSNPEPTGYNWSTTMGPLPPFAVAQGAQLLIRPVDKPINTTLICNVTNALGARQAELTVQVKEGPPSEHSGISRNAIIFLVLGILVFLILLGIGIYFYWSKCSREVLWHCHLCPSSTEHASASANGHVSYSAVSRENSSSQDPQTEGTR

[2] = biological target: T2, CD155 Mut (high-affinity mutant variant of CD155, rs1058402, G>A; Ala67Thr) (human, UniProt P15151 21-417, Ala67Thr)
T2 sequence: T1 chain with A47T

[3] = biological target: T2, CD155 Mut (high-affinity mutant variant …); remark: listed apart in the source

B1: Recombinant human TIGIT-Immunoglobulin chimeric protein, Q495A1 22-141 (Fc fusion)
chain: MMTGTIETTGNISAEKGGSIILQCHLSSTTAQVTQVNWEQQDQLLAICNADLGWHISPSFKDRVAPGPGLGLTLQSLTVNDTGEYFCIYHTYPDGTYTGRIFLEVLESSVAEHGARFQIP
modifications: here or on the partner: Alexa Fluor 594 (Zenon human IgG labeling kit)
fold binding (AUC) against parental Mel1 hPSC [1]: 4.25 fold

B2: Recombinant human TIGIT-Immunoglobulin chimeric protein (Fc fusion)
chain: B1 chain
modifications: Alexa Fluor 594 (Zenon human IgG labeling kit)
fold binding (AUC) against the CD155 WT sBC line [2]: 1.37 fold
fold binding (AUC) against parental Mel1 hPSC [3]: 6.47 fold
fold binding (AUC) against the CD155 WT hPSC line [3]: 1.52 fold

B3: Recombinant human CD226-Immunoglobulin chimeric protein (Fc fusion)
chain: EEVLWHTSVPFAENMSLECVYPSMGILTQVEWFKIGTQQDSIAIFSPTHGMVIRKPYAERVYFLNSTMASNNMTLFFRNASEDDVGYYSCSLYTYPQGTWQKVIQVVQSDSFEAAVPSNSHIVSEPGKNVTLTCQPQMTWPVQAVRWEKIQPRQIDLLTYCNLVHGRNFTSKFPRQIVSNCSHGRWSVIVIPDVTVSDSGLYRCYLQASAGENETFVMRLTVAEGKTDNQYTLFVA
modifications: Alexa Fluor 594 (Zenon human IgG labeling kit)
fold binding (AUC) against the CD155 WT sBC line [2]: 1.29 fold

Source: publication PMC12363821 (bioRxiv, 2025)
